Assay results: patent US11466286B2, “Methods and compositions for conferring and/or enhancing herbicide tolerance using protoporphyrinogen oxidase or variant thereof” (FarmHannong Co., Ltd., priority 2016, dated 2022)

The molecules below were run on CyPPO10 (assay: PPO enzyme activity and IC50 by herbicides, CyPPO10 wild type and variants (MBP-PPO fusion)). Conditions: PPO enzyme activity of CyPPO10 protein, wild type = 100.
Type: biochemical, Thermosynechococcus elongatus BP-1
Protocol: The enzyme activities of PPO protein and PPO protein variants were examined, and inhibition assay by PPO-inhibiting herbicides was conducted. It was confirmed that the PPO protein has low water-solubility, but in case of being expressed as a fusion protein with MBP (maltose binding protein) (MBP-PPO), the PPO protein is able to be stably expressed as water-soluble form. Therefore, the wild type and variant proteins which were expressed in the form of fusion protein with MBP were used in the present test (refer to FIG. 4).
In order to express wild type genes and mutant genes of CyPPO10 and CyPPO13 (refer to Example 1 and Example 4), those genes were introduced to pMAL-c2X vector (refer to FIG. 5) respectively, and then cloned to BL21 (DE3) E. coli (CodonPlus).
The enzyme activity of the purified wild type protein and variant proteins of CyPPO10 and CyPPO13 was measured by the following process.
At first, a substrate of PPO protein, Protoporphyrinogen IX was synthesized. This process was performed in the space where nitrogen gas is streamed. 6 mg of protoporphyrin IX was dissolved in 20% (v/v) EtOH 20 ml, and stirred under dark condition for 30 minutes. The obtained protoporphyrinogen IX solution was put into a 15 ml screw tube in an amount of 800 and flushed with nitrogen gas for 5 minutes. To this, 1 g of sodium amalgam was added and vigorous shaking was performed for 2 minutes. The lid was open to exhaust hydrogen gas in the tube. Thereafter, the lid was closed and incubated for 3 minutes. The […] was filtered using syringe and cellulose membrane filter. To 600 μl of the obtained […], 2M MOPS [3-(N-morpholino)propanesulfonic acid] was added in an amount of approximately 300 thereby adjusting pH to 8.0. To determine the enzyme activity of PPO protein, a reaction mixture was prepared with the following composition (based on 10 ml): 50 mM Tris-Cl (pH 8.0); 50 mM NaCl; 0.04% (v/v) Tween 20; 40 mM glucose (0.072 g); 5 units glucose oxidase (16.6 mg); and 10 units catalase (1 μl).
Two hundred microliters (200 μl) of reaction mixture containing a purified PPO protein were placed in 96 well plates, and preincubated for 30 min at room temperature to reduce the oxygen concentration by the reaction of glucose oxidase-catalase. The mineral oil was layered and then the reaction was initiated by adding the substrate, […], to a final concentration of 50 μM. The reaction proceeded at room temperature for 30 min and the fluorescence of protoporphyrin IX was measured using Microplate reader (Sense, Hidex) (excitation: 405 nm; emission: 633 nm). To calculate the PPO enzyme activity, protoporphyrinogen IX solution was kept open in the air to oxidize the solution (overnight). To this, 2.7N HCl was added, and the absorbance at 408 nm was measured. A standard curve was generated using standard protoporphyrin IX, and the PPO activity was measured by calibration of protoporphyrin IX using the standard curve of protoporphyrin IX.
The final concentration of each herbicide was as follows: […]

Molecule	Activity (%)
CyPPO10 F360V: CyPPO10 (SEQ ID NO: 2) PPO variant (protein, Synthetic CyPPO10) MIEVDVAIVGGGLSGLSVAWRLQRSAPHYSGVLLEASDRLGGNITTQAAEGFVWELGPNSFAPTPALLQLIAEVGLHSELIRGDRHLPRYIYWRGELYPLEPTRPLALATSNLLSPWGKVRAALGALGFVPPYLGSGDESVDSFFRRHLGQEVAERLVAPFVSGVYAGDPQQLSAAAAFRRIAQLEKLGGSLIAGALRLRRQQPPQPKPPAQVQMRPGELGSFREGLAALPRAIAQQLKAPLHLQTPVEAITPEPKGGYLLRSGEQTWHARSVVLATPAYQTAELVAPFQPAIARALATIPYPTVACVVLAYPAGLGRSVRPGFGVLVPRGQGIRTLGTIWSSCLFPQRTPAGWQVFTSVIGGATDPDLASLREEAIVEQVQQDLTRLLDLPAAKARLLGMKVWRRAIPQYIVGYPQQWQQVTHALTQTPGLFLCSNYAEGVALGDRVEHGNRTAAAVAAYLAGGQS	56%
CyPPO10 R89A + F360I: CyPPO10 (SEQ ID NO: 2) PPO variant (protein, Synthetic CyPPO10) MIEVDVAIVGGGLSGLSVAWRLQRSAPHYSGVLLEASDRLGGNITTQAAEGFVWELGPNSFAPTPALLQLIAEVGLHSELIRGDRHLPAYIYWRGELYPLEPTRPLALATSNLLSPWGKVRAALGALGFVPPYLGSGDESVDSFFRRHLGQEVAERLVAPFVSGVYAGDPQQLSAAAAFRRIAQLEKLGGSLIAGALRLRRQQPPQPKPPAQVQMRPGELGSFREGLAALPRAIAQQLKAPLHLQTPVEAITPEPKGGYLLRSGEQTWHARSVVLATPAYQTAELVAPFQPAIARALATIPYPTVACVVLAYPAGLGRSVRPGFGVLVPRGQGIRTLGTIWSSCLFPQRTPAGWQVFTSIIGGATDPDLASLREEAIVEQVQQDLTRLLDLPAAKARLLGMKVWRRAIPQYIVGYPQQWQQVTHALTQTPGLFLCSNYAEGVALGDRVEHGNRTAAAVAAYLAGGQS	38%
CyPPO10 V165S + F360M: CyPPO10 (SEQ ID NO: 2) PPO variant (protein, Synthetic CyPPO10) MIEVDVAIVGGGLSGLSVAWRLQRSAPHYSGVLLEASDRLGGNITTQAAEGFVWELGPNSFAPTPALLQLIAEVGLHSELIRGDRHLPRYIYWRGELYPLEPTRPLALATSNLLSPWGKVRAALGALGFVPPYLGSGDESVDSFFRRHLGQEVAERLVAPFVSGSYAGDPQQLSAAAAFRRIAQLEKLGGSLIAGALRLRRQQPPQPKPPAQVQMRPGELGSFREGLAALPRAIAQQLKAPLHLQTPVEAITPEPKGGYLLRSGEQTWHARSVVLATPAYQTAELVAPFQPAIARALATIPYPTVACVVLAYPAGLGRSVRPGFGVLVPRGQGIRTLGTIWSSCLFPQRTPAGWQVFTSMIGGATDPDLASLREEAIVEQVQQDLTRLLDLPAAKARLLGMKVWRRAIPQYIVGYPQQWQQVTHALTQTPGLFLCSNYAEGVALGDRVEHGNRTAAAVAAYLAGGQS	78%
CyPPO10 N59T + F360V: CyPPO10 (SEQ ID NO: 2) PPO variant (protein, Synthetic CyPPO10) MIEVDVAIVGGGLSGLSVAWRLQRSAPHYSGVLLEASDRLGGNITTQAAEGFVWELGPTSFAPTPALLQLIAEVGLHSELIRGDRHLPRYIYWRGELYPLEPTRPLALATSNLLSPWGKVRAALGALGFVPPYLGSGDESVDSFFRRHLGQEVAERLVAPFVSGVYAGDPQQLSAAAAFRRIAQLEKLGGSLIAGALRLRRQQPPQPKPPAQVQMRPGELGSFREGLAALPRAIAQQLKAPLHLQTPVEAITPEPKGGYLLRSGEQTWHARSVVLATPAYQTAELVAPFQPAIARALATIPYPTVACVVLAYPAGLGRSVRPGFGVLVPRGQGIRTLGTIWSSCLFPQRTPAGWQVFTSVIGGATDPDLASLREEAIVEQVQQDLTRLLDLPAAKARLLGMKVWRRAIPQYIVGYPQQWQQVTHALTQTPGLFLCSNYAEGVALGDRVEHGNRTAAAVAAYLAGGQS	62%
CyPPO10 R89A + F360M: CyPPO10 (SEQ ID NO: 2) PPO variant (protein, Synthetic CyPPO10) MIEVDVAIVGGGLSGLSVAWRLQRSAPHYSGVLLEASDRLGGNITTQAAEGFVWELGPNSFAPTPALLQLIAEVGLHSELIRGDRHLPAYIYWRGELYPLEPTRPLALATSNLLSPWGKVRAALGALGFVPPYLGSGDESVDSFFRRHLGQEVAERLVAPFVSGVYAGDPQQLSAAAAFRRIAQLEKLGGSLIAGALRLRRQQPPQPKPPAQVQMRPGELGSFREGLAALPRAIAQQLKAPLHLQTPVEAITPEPKGGYLLRSGEQTWHARSVVLATPAYQTAELVAPFQPAIARALATIPYPTVACVVLAYPAGLGRSVRPGFGVLVPRGQGIRTLGTIWSSCLFPQRTPAGWQVFTSMIGGATDPDLASLREEAIVEQVQQDLTRLLDLPAAKARLLGMKVWRRAIPQYIVGYPQQWQQVTHALTQTPGLFLCSNYAEGVALGDRVEHGNRTAAAVAAYLAGGQS	67%
CyPPO10 V165S + F360L: CyPPO10 (SEQ ID NO: 2) PPO variant (protein, Synthetic CyPPO10) MIEVDVAIVGGGLSGLSVAWRLQRSAPHYSGVLLEASDRLGGNITTQAAEGFVWELGPNSFAPTPALLQLIAEVGLHSELIRGDRHLPRYIYWRGELYPLEPTRPLALATSNLLSPWGKVRAALGALGFVPPYLGSGDESVDSFFRRHLGQEVAERLVAPFVSGSYAGDPQQLSAAAAFRRIAQLEKLGGSLIAGALRLRRQQPPQPKPPAQVQMRPGELGSFREGLAALPRAIAQQLKAPLHLQTPVEAITPEPKGGYLLRSGEQTWHARSVVLATPAYQTAELVAPFQPAIARALATIPYPTVACVVLAYPAGLGRSVRPGFGVLVPRGQGIRTLGTIWSSCLFPQRTPAGWQVFTSLIGGATDPDLASLREEAIVEQVQQDLTRLLDLPAAKARLLGMKVWRRAIPQYIVGYPQQWQQVTHALTQTPGLFLCSNYAEGVALGDRVEHGNRTAAAVAAYLAGGQS	59%
CyPPO10 V165S + F360I: CyPPO10 (SEQ ID NO: 2) PPO variant (protein, Synthetic CyPPO10) MIEVDVAIVGGGLSGLSVAWRLQRSAPHYSGVLLEASDRLGGNITTQAAEGFVWELGPNSFAPTPALLQLIAEVGLHSELIRGDRHLPRYIYWRGELYPLEPTRPLALATSNLLSPWGKVRAALGALGFVPPYLGSGDESVDSFFRRHLGQEVAERLVAPFVSGSYAGDPQQLSAAAAFRRIAQLEKLGGSLIAGALRLRRQQPPQPKPPAQVQMRPGELGSFREGLAALPRAIAQQLKAPLHLQTPVEAITPEPKGGYLLRSGEQTWHARSVVLATPAYQTAELVAPFQPAIARALATIPYPTVACVVLAYPAGLGRSVRPGFGVLVPRGQGIRTLGTIWSSCLFPQRTPAGWQVFTSIIGGATDPDLASLREEAIVEQVQQDLTRLLDLPAAKARLLGMKVWRRAIPQYIVGYPQQWQQVTHALTQTPGLFLCSNYAEGVALGDRVEHGNRTAAAVAAYLAGGQS	63%
CyPPO10 R89A + F360L: CyPPO10 (SEQ ID NO: 2) PPO variant (protein, Synthetic CyPPO10) MIEVDVAIVGGGLSGLSVAWRLQRSAPHYSGVLLEASDRLGGNITTQAAEGFVWELGPNSFAPTPALLQLIAEVGLHSELIRGDRHLPAYIYWRGELYPLEPTRPLALATSNLLSPWGKVRAALGALGFVPPYLGSGDESVDSFFRRHLGQEVAERLVAPFVSGVYAGDPQQLSAAAAFRRIAQLEKLGGSLIAGALRLRRQQPPQPKPPAQVQMRPGELGSFREGLAALPRAIAQQLKAPLHLQTPVEAITPEPKGGYLLRSGEQTWHARSVVLATPAYQTAELVAPFQPAIARALATIPYPTVACVVLAYPAGLGRSVRPGFGVLVPRGQGIRTLGTIWSSCLFPQRTPAGWQVFTSLIGGATDPDLASLREEAIVEQVQQDLTRLLDLPAAKARLLGMKVWRRAIPQYIVGYPQQWQQVTHALTQTPGLFLCSNYAEGVALGDRVEHGNRTAAAVAAYLAGGQS	30%
